Laboratory results reported in patent publication US20250000944A1, “USE OF RECOMBINANT CALRETICULIN IN HAIR GROWTH, HAIR BREEDING, HAIR PROTECTION OR ANTI-HAIR LOSS AND RELATED PRODUCT” (BEIJING YITUBAIHUI BIOTECH CO., LTD, priority 2021, published 2025).
“Also recorded” adds a separate entry of the source.

Tested on: AGA (androgenic alopecia) model mice
Assay: Third experiment: hair growth score in DHT-induced AGA model mice
Assay type: in vivo, C57BL/6N male mice
Details: Day 17, P<0.05
Description: C57BL/6N male mice, 6-7 weeks old, weighing (18-20) g, 50 mice, with the animal license number of SCXK (Beijing) 2021-0006, were kept in a 12 h light/12 h dark environment, with free access to food and water. Adaptive feeding was performed for about 1 week.
The hair in an area of about 2 cm×3 cm at the border of the spine was shaved using an electric shaver. The depilatory area was applied with 8% sodium sulfide solution. After 90±10 s, the depilatory area on the back was cleaned with cotton balls dipped in water, the residual sodium sulfide was washed away with a washing bottle, and then the mice were wiped dry. Because the hair follicle cycle of mice was in the resting phase at this time, the mouse skin was pink. Mice were randomly divided into groups using Excel software, 10 mice in each group, and the modeling was established after 24 h and the drug was administered for 17 consecutive days. The AGA model was established by injecting dihydrotestosterone into the experimental mice. Dihydrotestosterone (DHT) solution was injected subcutaneously at multiple points every day, 100 μL/mouse (5 mg/kg body weight), and then the drug was administered after 3 h of absorption. CRT-2 and CRT-1 protein solutions were applied externally. 100 μL of protein solution was applied, and 100 μl of minoxidil MNX was applied. The CRT and MNX combination group was first applied with CRT-2 protein solution and then MNX 2 hours later. The solvent formula comprised 50% ethanol, 20% propylene glycol, and 30% pure water.
Scoring was based on the coverage of hair growth: • 0 points: no hair growth, pink in the hair removal area; • 1 point: gray in the hair removal area, hair coverage area E<20%; • 2 points: black in the hair removal area, hair coverage area 20%<E<40%; • 3 points: black in the hair removal area with a little hair growth, hair coverage area 40%<E<60%; • 4 points: black in the hair removal area with some hair growth, hair coverage area 60%<E<80%; • 5 points: black in the hair removal area, hair coverage area 80%<E<100%.
The skin color changes of mice were observed before administration every day. The hair removal time of mice was designated as Day 0, the first day of administration was designated as Day 1, and so on. The hair growth of each mouse was recorded and analyzed on Day 7, Day 9, Day 11, Day 13, Day 15, and Day 17.

B1: CRT-2: fragment (1-349 aa) of recombinantly expressed CRT, amino acid sequence SEQ ID NO: 9 (protein)
chain: EPAVYFKEQFLDGDGWTSRWIESKHKSDFGKFVLSSGKFYGDEEKDKGLQTSQDARFYALSASFEPFSNKGQTLVVQFTVKHEQNIDCGGGYVKLFPNSLDQTDMHGDSEYNIMFGPDICGPGTKKVHVIFNYKGKNVLINKDIRCKDDEFTHLYTLIVRPDNTYEVKIDNSQVESGSLEDDWDFLPPKKIKDPDASKPEDWDERAKIDDPTDSKPEDWDKPEHIPDPDAKKPEDWDEEMDGEWEPPVIQNPEYKGEWKPRQIDNPDYKGTWIHPEIDNPEYSPDPSIYAYDNFGVLGLDLWQVKSGTIFDNFLITNDEAYAEEFGNETWGVTKAAEKQMKDKQDEEQR
- hair growth score compared with the Model group (external application 100 μL, CRT 0.35 mg/ml, MNX 5 mg/ml): significantly increased
- hair growth score compared with the CRT-1 group (external application): better than; also recorded: significantly increased
